Laboratory results reported in patent US20240352134A1.

Columns and labels:
[1] = target: human CCR8 (human) (UniProt P51685); experiment: binding affinity EC50, comparison of Table 12 (FACS on CCR8-expressing cells)
[2] = target: human CCR8 (human) (UniProt P51685); experiment: cell-based or functional assay

Chain of human CCR8 (human) (P51685 whole entry): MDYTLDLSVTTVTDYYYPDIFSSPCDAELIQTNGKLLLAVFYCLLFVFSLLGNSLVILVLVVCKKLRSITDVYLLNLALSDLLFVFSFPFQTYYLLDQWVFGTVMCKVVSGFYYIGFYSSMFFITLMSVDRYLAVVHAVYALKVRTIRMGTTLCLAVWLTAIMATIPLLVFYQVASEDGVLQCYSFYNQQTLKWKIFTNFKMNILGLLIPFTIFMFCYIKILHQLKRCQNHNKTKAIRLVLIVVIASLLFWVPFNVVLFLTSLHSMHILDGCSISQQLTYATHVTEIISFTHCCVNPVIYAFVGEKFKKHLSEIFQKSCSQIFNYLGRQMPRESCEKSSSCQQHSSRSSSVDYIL

B1: SRF-114 (antibody, from another filing, V domains shown)
VH: QVQLVQSGAEVKKPGASVKVSCKASGYTFTSYYMHWVRQAPGQGLEWMGIINPSGGSTSYAQKFQGRVTMTRDTSTSTVYMELSSLRSEDTAVYYCARAVRNRFRFDYWGQGTLVTVSS
VL: QSALTQPASVSGSPGQSITISCTGTSSDVGSYNLVSWYQQHPGKAPKLMIYEVSKRPSGVSNRFSGSKSGNTASLTISGLQAEDEADYYCSSYAGSSTFVVFGGGTKLTVL
With B1 the EC50 [1] was 3.2 nM and the Signal block Ca2+ [2] was 179 nM.
